Measured values reported in publication PMC5796892, “Leishmania donovani Inhibitor of Serine Peptidases 2 Mediated Inhibition of Lectin Pathway and Upregulation of C5aR Signaling Promote Parasite Survival inside Host” (Frontiers in Immunology, 2018).

Legend:
Settings in all cases: both partners purified
C1 complex (C1qr2s2) [1] = target: T1, C1 complex (C1qr2s2) (human, UniProt P02745 23-245; P02746 28-253; P02747 29-245); assay: ELISA; C1 complex at 6.25 µg/ml bound to human IgM-coated plate (37°C, 2 h); rLdISP1/rLdISP2 0-50 µM added, 37°C, 2 h; bound ISP detected with anti-ISP1 or anti-ISP2 antibody; Kd taken as the free ligand at half saturation
T1 construct: Complement C1q, subunit A; Complement C1q, subunit B; Complement C1q, subunit C; Complement C1r, serine protease of the C1 complex; the PDB entry was used only for docking and holds a fragment; Complement C1s, serine protease of the C1 complex; Held on plates coated with human IgM; also called C1 component; source: bought: Merk-Millipore (purified C1 complex); copies: + + + 2 + 2

C1 complex (C1qr2s2) [2] = target: T1, C1 complex (C1qr2s2); assay: ELISA; C1 complex at 12.5 µg/ml bound to human IgM-coated plate (37°C, 2 h); rLdISP1/rLdISP2 0-50 µM added, 37°C, 2 h; bound ISP detected with anti-ISP1 or anti-ISP2 antibody; Kd taken as the free ligand at half saturation
C1 complex (C1qr2s2) [3] = target: T1, C1 complex (C1qr2s2); assay: ELISA; C1 complex at 50 µg/ml bound to human IgM-coated plate (37°C, 2 h); rLdISP1/rLdISP2 0-50 µM added, 37°C, 2 h; bound ISP detected with anti-ISP1 or anti-ISP2 antibody; Kd taken as the free ligand at half saturation
C1 complex (C1qr2s2) [4] = target: T1, C1 complex (C1qr2s2); assay: ELISA; C1 complex at 100 µg/ml bound to human IgM-coated plate (37°C, 2 h); rLdISP1/rLdISP2 0-50 µM added, 37°C, 2 h; bound ISP detected with anti-ISP1 or anti-ISP2 antibody; Kd taken as the free ligand at half saturation
C1 complex (C1qr2s2) [5] = target: T1, C1 complex (C1qr2s2); assay: ELISA; C1 complex at 25 µg/ml bound to human IgM-coated plate (37°C, 2 h); rLdISP1/rLdISP2 0-50 µM added, 37°C, 2 h; bound ISP detected with anti-ISP1 or anti-ISP2 antibody; Kd taken as the free ligand at half saturation

B1: recombinant Leishmania donovani inhibitor of serine peptidases 1 (natural protein)
chain: MSYCKIEAPYPTAEAGEKRIIFALDPKGDEAEQEQYMLQLIPGRVLEMSRNDAANHQTLGGSIEQHTVEGWGAKFFHVKLAKQAASTLMHVHDEDHSEKVRKFVAMPNPPLFPYRSRCPVVVYLPNDAELRYGIWCGGQQMQAVTE
Ka (C1 complex (C1qr2s2) [1]): 260000 M⁻¹ | Kd (C1 complex (C1qr2s2) [1]): 3.8 µM | Ka (C1 complex (C1qr2s2) [2]): 280000 M⁻¹ | Kd (C1 complex (C1qr2s2) [2]): 3.5 µM | Ka (C1 complex (C1qr2s2) [3]): 450000 M⁻¹ | Kd (C1 complex (C1qr2s2) [3]): 2200 nM | Ka (C1 complex (C1qr2s2) [4]): 625000 M⁻¹ | Kd (C1 complex (C1qr2s2) [4]): 1600 nM | Ka (C1 complex (C1qr2s2) [5]): 330000 M⁻¹ | Kd (C1 complex (C1qr2s2) [5]): 2800 nM
